Experimental findings from paper doi:10.1101/2019.12.17.868638 are described below.

The assay has as its target Rl-SRDI565 sulfoquinovosidase, K375A/K376A variant (RlSQase*) (Rhizobium leguminosarum bv. trifolii SRDI565). The assay can be described thus: SEC-MALS.

The substance “Rl-SRDI565 sulfoquinovosidase, K375A/K376A variant (RlSQase*) (enzyme)” returned a stoichiometry N of 2.
